This data set has as its system NCCCC[C@H](N)C(=O)O. Kind of data set: purified protein.

The term Km denotes the concentration of substrate that gives half-maximal velocity.

For the substance “lysyl-tRNA synthetase 1 (LdLysRS-1) (Leishmania donovani)”, the Michaelis constant (Km) came to 111 ± 15 µM.

Values taken from publication PMC5577655.
